For one test, the target named is Gαi1-intYFP (UniProt P63096). The experiment in a line: FRET or BRET; living HeLa cells cotransfected with Gαi1-intYFP, CFP-Gβ1 and Gγ2, 0.2% FBS overnight, before stimulation (t0); confocal, FRET efficiency at the plasma membrane; also Daple-depleted cells with or without Wnt5a, and Wnt3 stimulation, where FRET continued. (BRET reads energy transfer from a luciferase to a nearby fluorophore.)

The target in the next test is GST-FZD7-CT (UniProt O75084). The experiment in a line: pull-down; as a19, His-Gαi3 (GDP) with GST-FZD7-CT in the presence of His-Daple-CT WT.

Sequence of Gαi1-intYFP (P63096 whole entry): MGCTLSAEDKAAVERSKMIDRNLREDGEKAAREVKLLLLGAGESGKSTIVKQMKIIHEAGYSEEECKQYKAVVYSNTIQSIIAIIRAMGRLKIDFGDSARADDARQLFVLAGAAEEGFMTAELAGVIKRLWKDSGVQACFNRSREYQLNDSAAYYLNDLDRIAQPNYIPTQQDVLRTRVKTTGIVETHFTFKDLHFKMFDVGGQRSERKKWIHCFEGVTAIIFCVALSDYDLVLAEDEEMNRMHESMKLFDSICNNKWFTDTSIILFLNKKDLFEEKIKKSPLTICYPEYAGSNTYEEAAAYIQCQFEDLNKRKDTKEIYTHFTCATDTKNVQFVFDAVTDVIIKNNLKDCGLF
Sequence of His-Gαi3 (P08753 whole entry): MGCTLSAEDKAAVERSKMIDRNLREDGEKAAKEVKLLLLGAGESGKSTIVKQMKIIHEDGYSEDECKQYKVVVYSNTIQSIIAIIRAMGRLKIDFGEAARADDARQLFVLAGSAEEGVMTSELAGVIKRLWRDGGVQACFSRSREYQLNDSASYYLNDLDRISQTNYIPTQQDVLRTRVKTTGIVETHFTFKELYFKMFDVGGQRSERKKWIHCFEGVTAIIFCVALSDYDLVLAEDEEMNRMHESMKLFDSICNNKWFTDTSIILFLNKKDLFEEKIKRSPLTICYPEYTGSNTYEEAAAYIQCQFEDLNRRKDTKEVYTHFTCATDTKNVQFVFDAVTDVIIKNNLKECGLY

For the substance “CFP-Gβ1 with Gγ2 (from UniProt P62873 1-340; P59768 1-71) (complex)”, the FRET efficiency in the test with Gαi1-intYFP was 0.36.
As to “His-Gαi3 (from UniProt P08753 1-354) (natural protein)”, the fold increase of binding in the presence of m2 in the test with GST-FZD7-CT was found to be 5 fold.
